Positions count from the first letter of the chain named. Names and notes keep the numbering of the source.
T1: biotinylated V112E-PNT domain (ETV6 residues 43-135, V112E, with Avitag) (human, UniProt P41212 43-135, V112E, biotin on the Avitag (~50 to 95% biotinylated))
T1 construct: ETV6, human, residues 43-135 of V112E ETV6; also called biotinylated V112E-PNT domain ligand; V112E-PNT domain ligand; source: E. coli BL21 (λDE3) co-transformed with pET21a-BirA, purified (Ni-NTA, thrombin cleavage); not shown: His6, N-terminal, cleaved; Avitag, N-terminal, kept
T1 sequence (looked up): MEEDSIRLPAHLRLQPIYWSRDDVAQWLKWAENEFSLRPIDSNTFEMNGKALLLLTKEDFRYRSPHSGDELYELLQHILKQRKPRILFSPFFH

T2: biotinylated A93D-PNT domain (ETV6 residues 43-135, A93D, with Avitag) (human, UniProt P41212 43-135, A93D, biotin on the Avitag (~50 to 95% biotinylated))
T2 construct: ETV6, human, residues 43-135; made from the V112E construct by introducing A93D and E112V; also called biotinylated A93D-PNT domain ligand; A93D-PNT domain ligand; source: E. coli BL21 (λDE3) co-transformed with pET21a-BirA, purified (Ni-NTA, thrombin cleavage); not shown: His6, N-terminal, cleaved; Avitag, N-terminal, kept
T2 sequence (looked up): T1 sequence (looked up) with A51D, E70V

B1: A93D-PNT domain (ETV6 residues 40-125 with the A93D mutation) (domain or fragment, human, UniProt P41212 40-125, looked up)
chain: ALRMEEDSIRLPAHLRLQPIYWSRDDVAQWLKWAENEFSLRPIDSNTFEMNGKDLLLLTKEDFRYRSPHSGDVLYELLQHILKQRK
notes: ETV6 PNT domain fragment, human, residues 40-125; expressed as residues 1-125 and cut by thrombin at the internal site V37-P38-R39/A40; 15N- or 13C/15N-labelled or unlabelled in NMR; also called A93D-PNT domain analyte; source: E. coli BL21 (λDE3), purified (Ni-NTA, thrombin cleavage, Superdex S75; size exclusion omitted for SPR); not shown: His6, N-terminal, cleaved
B2: V112E-PNT domain (ETV6 residues 40-125 with the V112E mutation) (domain or fragment, human, UniProt P41212 40-125, looked up)
chain: B1 chain with D54A, V73E
notes: ETV6 PNT domain fragment, human, residues 40-125; expressed as residues 1-125 and cut by thrombin at the internal site V37-P38-R39/A40; 15N- or 13C/15N-labelled or unlabelled in NMR; also called V112E-PNT domain analyte; source: E. coli BL21 (λDE3), purified (Ni-NTA, thrombin cleavage, Superdex S75; size exclusion omitted for SPR); not shown: His6, N-terminal, cleaved
B3: H119A-A93D-PNT domain (domain or fragment, human, UniProt P41212 40-125, looked up)
chain: B1 chain with H80A
notes: ETV6 PNT domain, human; source: E. coli BL21 (λDE3), purified (Ni-NTA, thrombin cleavage); not shown: His6, N-terminal, cleaved
B4: H108A-A93D-PNT domain (domain or fragment, human, UniProt P41212 40-125, looked up)
chain: B1 chain with H69A
notes: as for B3
B5: D111A-A93D-PNT domain (domain or fragment, human, UniProt P41212 40-125, looked up)
chain: B1 chain with D72A
notes: as for B3
B6: L97A-V112E-PNT domain (domain or fragment, human, UniProt P41212 40-125, looked up)
chain: B1 chain with D54A, L58A, V73E
notes: as for B3
B7: R103A-A93D-PNT domain (domain or fragment, human, UniProt P41212 40-125, looked up)
chain: B1 chain with R64A
notes: as for B3
B8: P107A-A93D-PNT domain (domain or fragment, human, UniProt P41212 40-125, looked up)
chain: B1 chain with P68A
notes: as for B3
B9: E100A-V112E-PNT domain (domain or fragment, human, UniProt P41212 40-125, looked up)
chain: B1 chain with D54A, E61A, V73E
notes: as for B3
B10: Y114A-A93D-PNT domain (domain or fragment, human, UniProt P41212 40-125, looked up)
chain: B1 chain with Y75A
notes: as for B3
B11: S78A-A93D-PNT domain (domain or fragment, human, UniProt P41212 40-125, looked up)
chain: B1 chain with S39A
notes: as for B3
B12: E76A-A93D-PNT domain (domain or fragment, human, UniProt P41212 40-125, looked up)
chain: B1 chain with E37A
notes: as for B3
B13: M89A-V112E-PNT domain (domain or fragment, human, UniProt P41212 40-125, looked up)
chain: B1 chain with M50A, D54A, V73E
notes: as for B3
B14: F77A-A93D-PNT domain (domain or fragment, human, UniProt P41212 40-125, looked up)
chain: B1 chain with F38A
notes: as for B3
B15: E88A-V112E-PNT domain (domain or fragment, human, UniProt P41212 40-125, looked up)
chain: B1 chain with E49A, D54A, V73E
notes: as for B3
B16: V112A-A93D-PNT domain (domain or fragment, human, UniProt P41212 40-125, looked up)
chain: B1 chain with V73A
notes: as for B3
B17: N90A-V112E-PNT domain (domain or fragment, human, UniProt P41212 40-125, looked up)
chain: B1 chain with N51A, D54A, V73E
notes: ETV6 PNT domain, human; gene purchased commercially (Biomatik); source: E. coli BL21 (λDE3), purified (Ni-NTA, thrombin cleavage); not shown: His6, N-terminal, cleaved
B18: K99A-A93D-PNT domain (domain or fragment, human, UniProt P41212 40-125, looked up)
chain: B1 chain with K60A
notes: as for B3
B19: I59A-V112E-PNT domain (domain or fragment, human, UniProt P41212 40-125, looked up)
chain: B1 chain with I20A, D54A, V73E
notes: as for B3
B20: L116A-A93D-PNT domain (domain or fragment, human, UniProt P41212 40-125, looked up)
chain: B1 chain with L77A
notes: as for B17
B21: E100A-A93D-PNT domain (domain or fragment, human, UniProt P41212 40-125, looked up)
chain: B1 chain with E61A
notes: as for B3
B22: T98A-V112E-PNT domain (domain or fragment, human, UniProt P41212 40-125, looked up)
chain: B1 chain with D54A, T59A, V73E
notes: as for B3
B23: I48A-A93D-PNT domain (domain or fragment, human, UniProt P41212 40-125, looked up)
chain: B1 chain with I9A
notes: as for B3
B24: L96A-V112E-PNT domain (domain or fragment, human, UniProt P41212 40-125, looked up)
chain: B1 chain with D54A, L57A, V73E
notes: as for B3
B25: S47A-A93D-PNT domain (domain or fragment, human, UniProt P41212 40-125, looked up)
chain: B1 chain with S8A
notes: as for B3
B26: D101A-V112E-PNT domain (domain or fragment, human, UniProt P41212 40-125, looked up)
chain: B1 chain with D54A, D62A, V73E
notes: as for B3
B27: R80A-A93D-PNT domain (domain or fragment, human, UniProt P41212 40-125, looked up)
chain: B1 chain with R41A
notes: as for B3
B28: K92A-V112E-PNT domain (domain or fragment, human, UniProt P41212 40-125, looked up)
chain: B1 chain with K53A, D54A, V73E
notes: as for B3
B29: N85A-V112E-PNT domain (domain or fragment, human, UniProt P41212 40-125, looked up)
chain: B1 chain with N46A, D54A, V73E
notes: as for B3
B30: R105A-V112E-PNT domain (domain or fragment, human, UniProt P41212 40-125, looked up)
chain: B1 chain with D54A, R66A, V73E
notes: as for B3
B31: E115A-A93D-PNT domain (domain or fragment, human, UniProt P41212 40-125, looked up)
chain: B1 chain with E76A
notes: as for B3
B32: R63A-V112E-PNT domain (domain or fragment, human, UniProt P41212 40-125, looked up)
chain: B1 chain with R24A, D54A, V73E
notes: as for B3
B33: L79A-A93D-PNT domain (domain or fragment, human, UniProt P41212 40-125, looked up)
chain: B1 chain with L40A
notes: as for B3

Assays:
[1] = biological target: T1, biotinylated V112E-PNT domain (ETV6 …); assay: SPR; biotinylated V112E-PNT domain ligand captured on streptavidin Sensor Chip SA, PNT domain analytes flowed; Biacore X100, 25 °C, HBS-EP+ (10 mM HEPES, 150 mM NaCl, 3 mM EDTA, 0.05% v/v Tween-20, pH 7.4); analyte 0.2-60 nM, re-run at 20-6000 nM if KD > 60 nM; details: both partners purified
In short: (§1)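 Association and dissociation rate constants and the equilibrium dissociation constant were obtained with the kinetics/affinity wizard of the Biacore software. For these measurements, Avitag-biotinylated ETV6 PNT domain (residues 43-135) at 50 μg/ml in HBS-EP+ was captured on a streptavidin Sensor Chip SA in a Biacore X100 at 25 °C. Analytes were flowed at 0.2, 2, 20, 40 and 60 nM, with weaker binders re-run at 20-6000 nM.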

[2] = biological target: T2, biotinylated A93D-PNT domain (ETV6 …); assay: SPR; biotinylated A93D-PNT domain ligand captured on streptavidin Sensor Chip SA, PNT domain analytes flowed; Biacore X100, 25 °C, HBS-EP+ (10 mM HEPES, 150 mM NaCl, 3 mM EDTA, 0.05% v/v Tween-20, pH 7.4); analyte 0.2-60 nM, re-run at 20-6000 nM if KD > 60 nM; details: both partners purified
In short: as §1

| Binder | Kd [1] [nM] | koff [1] [s⁻¹] | kon [1] [M⁻¹ s⁻¹] | Kd [2] [nM] | koff [2] [s⁻¹] | kon [2] [M⁻¹ s⁻¹] |
| --- | --- | --- | --- | --- | --- | --- |
| B1 | 7.5 | 0.0015 | 200000 | – | – | – |
| B2 | – | – | – | 5.1 | 0.0023 | 440000 |
| B3 | 13 | 0.0034 | 270000 | – | – | – |
| B4 | 5.4 | 0.0014 | 260000 | – | – | – |
| B5 | 420 | 0.0014 | 3300 | – | – | – |
| B6 | – | – | – | 700 | 0.068 | 98000 |
| B7 | 21 | 0.0054 | 250000 | – | – | – |
| B8 | 8.1 | 0.0021 | 260000 | – | – | – |
| B9 | – | – | – | 7 | 0.0035 | 500000 |
| B10 | 130 | 0.0045 | 35000 | – | – | – |
| B11 | 3.3 | 0.0093 | 2.8e+06 | – | – | – |
| B12 | 9.9 | 0.0062 | 620000 | – | – | – |
| B13 | – | – | – | 340 | 0.033 | 97000 |
| B14 | 450 | 0.015 | 34000 | – | – | – |
| B15 | – | – | – | 8.1 | 0.004 | 500000 |
| B16 | 550 | 0.011 | 20000 | – | – | – |
| B17 | – | – | – | 480 | 0.037 | 78000 |

| Binder | Kd [1] [nM] | koff [1] [s⁻¹] | kon [1] [M⁻¹ s⁻¹] | Kd [2] [nM] | koff [2] [s⁻¹] | kon [2] [M⁻¹ s⁻¹] |
| --- | --- | --- | --- | --- | --- | --- |
| B18 | 930 | 0.0023 | 2400 | – | – | – |
| B19 | – | – | – | 5.8 | 0.0025 | 430000 |
| B20 | 3.3 | 0.00076 | 230000 | – | – | – |
| B21 | 5 | 0.0015 | 310000 | – | – | – |
| B22 | – | – | – | 8.8 | 0.0054 | 620000 |
| B23 | 12 | 0.004 | 340000 | – | – | – |
| B24 | – | – | – | 1000 | 0.0095 | 9500 |
| B25 | 6.9 | 0.0014 | 210000 | – | – | – |
| B26 | – | – | – | 400 | 0.0025 | 6300 |
| B27 | 32 | 0.0029 | 91000 | – | – | – |
| B28 | – | – | – | 62 | 0.022 | 350000 |
| B29 | – | – | – | 9.9 | 0.0034 | 350000 |
| B30 | – | – | – | 2340 | 0.0054 | 2300 |
| B31 | 11 | 0.0025 | 230000 | – | – | – |
| B32 | – | – | – | 15 | 0.0054 | 360000 |
| B33 | 200 | 0.0016 | 8100 | – | – | – |
